From US7670806B2, “ADP-ribosyl acceptor hydrolase 3 (ARH3) polypeptides and methods of use” (The United States of America as represented by the …, priority 2005, dated 2010)
Where “and” joins values, the source holds several entries; their conditions need not be identical. Equal entries are not always repeated.

Experiments:
[1] = Hydrolysis of O-acetyl-[14C]ADP-ribose by ARH proteins / PARG (RP-HPLC); assay type: biochemical
Experimental: FIG. 13A is a graph illustrating the results from incubation of 1.5 pmol of mouse ARH3 with or without 5 mM DTT and/or 10 mM MgCl2 as described in FIG. 11B with incubation for 1 h at 30° C. FIG. 13B is a graph illustrating the results from incubation of 1.5 pmol of wild type or mutant human (D77-78) ARH3 or 20 mU of PARG for 2 h at 30° C. *D77,78, assays incubated with 15 pmol of mutant human ARH3 (D77, D78).
FIG. 14A is a graph of the results from incubation with the indicated amount of mouse ARH1, 2, or 3 for 2 h at 30° C. FIG. 14B is a graph of the results from incubation with 230 pmol of mouse ARH1 at 30° C. for the indicated time.
Mouse ARH3 (2 pmol) and 2.5 μM O-acetyl-[^14C]ADP-ribose (5,000 cpm) in 200 μl of buffer containing 50 mM potassium phosphate (pH 7.0), 10 mM MgCl2 and 5 mM DTT were incubated for 2 h at 30° C., before separation of substrate and products using RP-HPLC as described below.
Hydrolysis of O-acetyl-[^14C]ADP-ribose catalyzed by ARH3. Assays containing the indicated concentration of O-acetyl-[^14C]-ADP-ribose (0.1 to 2 nmol, 1,000 to 20,000 cpm) and 1.5 pmol of ARH3 in 200 μl of buffer (50 mM KPO4 (pH 7.0), 10 mM MgCl2, 5 mM DTT) were incubated at 30° C. for 20 min. Substrate and products were separated using RP-HPLC. Amounts of product were corrected for ADP-ribose produced in the absence of ARH3 before calculation of hydrolysis rates.
Because O-acetyl-ADP-ribose was known to be hydrolyzed at alkaline pH Tanny and Moazed (2001), Proc Natl Acad Sci USA. 98(2):415-20, Epub Dec. 26, 2000), it was generated at pH 7.0 in the presence of [^14C-adenine] β-NAD, Sir2, and acetylated histone H3 peptide (FIG. 11A), and the products of Sir2 and ARH3 were analyzed using reverse-phase HPLC at the same pH (FIGS. 11A,B). The products of the ARH3-catalyzed reaction were also analyzed by high resolution-polyacrylamide gel electrophoresis (FIG. 11C). O-acetyl-[^14C]ADP-ribose hydrolase activity was time and ARH3 dependent (FIG. 12) and essentially completely dependent on Mg^2+ (FIG. 13A).
O-acetyl-ADP-ribose hydrolysis by ARH1 was time and ARH1 dependent (FIG. 14b).

NIH3T3 cells = assay: Effect of H2O2 on ARH3-transfected NIH3T3 cells (Cell-Counting Kit-8); assay type: cell-based; conditions: stably ARH3 cDNA-transfected NIH3T3 cells vs empty vector; H2O2 for 24 hours
Experimental: FIG. 16 is a line graph showing the effect of H2O2 on ARH3-transfected NIH3T3 cells. NIH3T3 cells were transfected with ARH3 cDNA using Lipofectamin transfection reagent (INVITROGEN™). After transfection, the cells were cultured and exposed to 200 μg/ml of Hygromycin G (INVITROGEN™) for 3-4 weeks to select stably transfected clones. Positive clones derived from single Hygromycin G-resistant cells were then isolated by cloning rings and further grown under the same conditions. As controls, NIH3T3 cells were transfected with an empty pcDNA3.1 vector (INVITROGEN™) and subjected to the same selection and cloning procedures as described above. The cells were plated in 96-well plates at 1×10^4 cells/well, and incubated for 24 h at 37° C. in a humidified incubator. The cells were then challenged at the indicated concentrations of H2O2 for 24 hours. Cell survival was determined by using Cell-Counting Kit-8 (Dojindo). The experiments were repeated twice with similar results.
To test the role of ARH3 in the cellular response to oxidative stress, NIH3T3 cells were transfected with ARH3 cDNA using Lipofectamin transfection reagent (Invitrogen). […]
The cells were plated in 96-well plates at 1×10^4 cells/well, and incubated for 24 hours at 37° C. in a humidified incubator. […] Cell viability was determined by using Cell-Counting Kit-8 (Dojindo). […]

B1: ARH3: 39-kDa recombinant protein having both poly(ADP-ribose) glycohydrolase activity and O-acetyl-ADP-ribose hydrolase activity (protein, listed as Homo sapiens)
chain: MAAAAMAAAAGGGAGAARSLSRFRGCLAGALLGDCVGSFYEAHDTVDLTSVLRHVQSLEPDPGTPGSERTEALYYTDDTAMARALVQSLLAKEAFDEVDMAHRFAQEYKKDPDRGYGAGVVTVFKKLLNPKCRDVFEPARAQFNGKGSYGNGGAMRVAGISLAYSSVQDVQKFARLSAQLTHASSLGYNGAILQALAVHLALQGESSSEHFLKQLLGHMEDLEGDAQSVLDARELGMEERPYSSRLKKIGELLDQASVTREEVVSELGNGIAAFESVPTAIYCFLRCMEPDPEIPSAFNSLQRTLIYSISLGGDTDTIATMAGAIAGAYYGMDQVPESWQQSCEGYEETDILAQSLHRVFQKS
Km ([1]; 1.5 pmol ARH3, 30° C., 20 min, pH 7.0, 10 mM MgCl2, 5 mM DTT): 7.4 ± 0.7 µM | Vmax, O-acetyl-ADP-ribose hydrolysis ([1]; 1.5 pmol ARH3, 30° C., 20 min, pH 7.0, 10 mM MgCl2, 5 mM DTT, means ±½ range of duplicates): 173 ± 8.4 nmol/min/mg | kcat, O-acetyl-ADP-ribose hydrolysis ([1]; comparison with mNudT5): 0.0052 ± 0.0033 s⁻¹ | Rate of O-acetyl-ADP-ribose hydrolysis relative to that of ARH1 ([1]; times / -fold the rate with ARH1, recombinant mouse proteins, 2 h at 30° C.): 250 and > 250 | Cell viability after H2O2 challenge (NIH3T3 cells): significantly reduced the toxic effect of H2O2
